Assay results published in the supplement of paper PMC9170038.

System: MS2 coat protein
Assay: apparent KD of MS2 coat protein; designed switch direction (-1 OFF switch, 1 ON switch): 1; higher = weaker reporter binding
Outline: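 On Illumina chips, designed RNA switches with common flanks were made by stalled E. coli RNA polymerase. Titrations with SNAP-549-labelled MS2 coat protein, doubling from 0.7 or 1.5 nM to 3 µM, were done with no input, with 200 uM small-molecule ligand, or with an oligonucleotide input. Apparent KD is the median per design over clusters, from curve fits of normalised cluster fluorescence.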

[1] = input ligand: microRNA oligo, concentration not stated
[2] = Eterna round: R95, input ligand: FMN 200 uM
[3] = Eterna round: R95, input ligand: microRNA oligo, concentration not stated
[4] = Eterna round: R95, input ligand: none

Row | Sequence | apparent KD of MS2 coat protein (input ligand: FMN 200 uM) | apparent KD of MS2 coat protein [1] | apparent KD of MS2 coat protein (input ligand: none) | apparent KD of MS2 coat protein [2] | apparent KD of MS2 coat protein [3] | apparent KD of MS2 coat protein [4]
1 | CCACUCUGCGGAGGAUAUGGGCCUGCCCGGGAUAACGGGCCUAAUACAUGAGGAUCACCCAUGUCCCAGAAGGCCGCUAGAGCC [Xeusza] (Eterna round: R96, puzzle: Same State NG 2) | 18.8 nM | 92.4 nM | 139 nM | – | – | –
2 | CCCAUGAAUAGUCAGGAUAUACGAUUUUAUACAUGAGGAUCACCCAUGUUAAGACUCCUCAAUAAGUAGAAGGGACUAUUUAUAA [Tesla Same State 2] (puzzle: Same State 2) | – | – | – | 154 nM | 144 nM | 103 nM
3 | CCCUCACAUGAGGAUCACCCAUGUCCUAGCCCGUCAGGAUAUAGCCCGCAUCCGCUGCGGCUAGAAGGGACAGCUG [JR_SS001_Sub611] (Eterna round: R96, puzzle: Same State 1) | 177 nM | 152 nM | 232 nM | – | – | –
4 | CCCUUCGGCACAUGAGGAUCACCCAUGUUUUAGUGGAAGAGGUAGGAUAUGGCUGGGAGCAGAAGCCAGAAGGACCAAAUAAAU [Attiatan] (Eterna round: R96, puzzle: Same State NG 3) | 22.1 nM | 19 nM | 9.8 nM | – | – | –
5 | CCGAUUGAUGGAGGAUAUGGAGCCUUAUUGGCUCCAGAAGGCUAAUAACAUGAGGAUCACCCAUGUCGGCGGUCUAAUGACCGA [Eli NG1ss - 54] (Eterna round: R96, puzzle: Same State NG 1) | 36.1 nM | 57.5 nM | 69.1 nM | – | – | –
6 | CCGCAUUCAGCAGGAUAUCUCAACCGGAAGAUGAGAGAAGGGUUGAUUACAUGAGGAUCACCCAUGUCCAAGCAUGCGAGAGCC [Eternabot solution 23] (Eterna round: R96, puzzle: Same State NG 1) | 500 nM | 754 nM | 188 nM | – | – | –
7 | CCGGCCACACAACAAGGCCAACAUGAGGAUCACCCAUGUACACAGGAUAUCGGCAGCCAAGGCUCCGAGAAGGGUGGUUCAAUU [Beage] (Eterna round: R96, puzzle: Same State NG 3) | 438 nM | 145 nM | 234 nM | – | – | –
8 | CCGGUACAUGAGGAUCACCCAUGUUGCGGCAGGACAGGAUAUGGGCGAGAAUAUGUAGGCCCAGAAGGGUCAUCAC [Qure] (puzzle: Same State 1) | – | – | – | 24.1 nM | 42.1 nM | 38.9 nM
9 | CCGUAGAUGGAAGGAUAUGGAGCCUUAUUGGCUCCAGAAGGUUCAAAACAUGAGGAUCACCCAUGUACGGCGGUCAAUAGACCG [Eli NG1ss - 82] (Eterna round: R96, puzzle: Same State NG 1) | 111 nM | 226 nM | 245 nM | – | – | –
10 | CCGUAGAUGGAAGGAUAUGGAGCCUUAUUGGCUCCAGAAGGUUCAAUACAUGAGGAUCACCCAUGUUCGGCGGUCAAUAGACCG [Eli NG1ss - 81] (Eterna round: R96, puzzle: Same State NG 1) | 26.9 nM | 32 nM | 66.6 nM | – | – | –
11 | CCUGCAAUUAACGCCUACAUGAGGAUCACCCAUGUAUGUAGGCAGGAUAUCGUUUGCUUUGCAAACGAGAAGGGCUGUAGUAGC [salish99_SSNG3_R04_002] (Eterna round: R96, puzzle: Same State NG 3) | 18.7 nM | 15.4 nM | 18.9 nM | – | – | –
12 | CGAUGAAACAAAGGAAGAAGAGUUGAAGUACAUGAGGAUCACCCAUGUCAGAGCUUUUUGCUCGUCAUGAACAGGAA [JR_SHM208a_Sub004] (puzzle: Sensor for hsa-mir-208a) | – | – | – | 35.9 nM | 24.4 nM | 54.9 nM
13 | CGGCGCUGUUGAGAGGAUAUGCGGUGAUGGACAUGAGGAUCACCCAUGUUAGCGAUAGCAUUACGGUAGAAGGCUCUACAGCUGU [Soteed Omei mod 11] (puzzle: Same State 2) | – | – | – | – | 21.7 nM | –
